Two molecules from US20070244042A1 (University of Texas, published 2007) can be followed below.

B2: TGFβ type II receptor extracellular domain (sRII) (receptor)
chain: MIPPHVQKSVNNDMIVTDNNGAVKFPQLCKFCDVRFSTCDNQKSCMSNCSITSICEKPQEVCVAVWRKNDENITLETVCHDPKLPYHDFILEDAASPKCIMKEKKKPGETFFMCSCSSDECNDNIIFSEEYNTSNPD
notes: also called recombinant sRII; extracellular domain of RII

The target of experiment [1] is B2. Description: electrophoretic mobility shift, 12% native polyacrylamide gel pH 8.8, Coomassie staining. An excerpt: (§1) Referring now to FIG. 1, binding of the E-domain of betaglycan (BGe) and the TGFβ type II receptor extracellular domain (sRII) to TGFβ2. A. Electrophoretic mobility shift assay in which an increasing amount of sRII has been added to a fixed amount of TGFβ2 and then applied to 12% native polyacryamide gel at pH 8.8. The relative molar amounts of TGFβ2 and sRII used in the assay are indicated above the gel. The protein bands were visualized by Coomassie blue staining. B. Electrophoretic mobility shift assay in which an increasing amount of BGe has been added to a fixed amount of TGFβ2 and then applied to 12% native polyacryamide gel at pH 8.8. The relative molar amounts of TGFβ2 and BGe (sRIIIe) used in the assay are indicated above the gel. The protein bands were visualized by Coomassie blue staining. The arrow labeled BC designates the binary complex formed between TGFβ2 and BGe. C. […] Purified TGFβ2 and BGe have also been applied to the SDS gel as controls. Relative molar amounts are indicated above the gel. The protein bands were visualized by Coomassie blue staining. On the basis of the relative amounts of TGFβ2 and BGe (sRIIIe) in the binary complex, together with the relative band intensities for the TGFβ2 and BGe (sRIIIe) controls, we tentatively conclude that BGe and the TGFβ2 homodimer bind with 1:1 stochiometry.
For orientation: In EMSA bound probe runs differently from free probe, usually more slowly.

The target of experiment [2] is T1, E-domain of betaglycan (BGe) (Rattus norvegicus, UniProt P26342 24-409).
T1 construct: also called sRIIIe; sBGe
T1 sequence: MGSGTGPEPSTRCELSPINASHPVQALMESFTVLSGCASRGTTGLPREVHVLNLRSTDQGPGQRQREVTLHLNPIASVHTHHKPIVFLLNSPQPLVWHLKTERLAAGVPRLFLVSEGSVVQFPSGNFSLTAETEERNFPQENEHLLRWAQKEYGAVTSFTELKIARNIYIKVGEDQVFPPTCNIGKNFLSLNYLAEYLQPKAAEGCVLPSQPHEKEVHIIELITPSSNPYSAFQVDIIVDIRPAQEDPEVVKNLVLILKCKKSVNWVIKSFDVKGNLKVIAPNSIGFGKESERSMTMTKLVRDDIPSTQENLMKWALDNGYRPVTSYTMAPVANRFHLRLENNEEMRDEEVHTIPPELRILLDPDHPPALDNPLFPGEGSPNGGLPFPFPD
The experiment is described as above.
From the text: as §1

B1: TGFβ2 (ligand)
chain: ALDAAYCFRNVQDNCCLRPLYIDFKRDLGWKWIHEPKGYNANFCAGACPYLWSSDTQHSRVLSLYNTINPEASASPCCVSQDLEPLTILYYIGKTPKIEQLSNMIVKSCKCS
notes: also called TGFβ2 homodimer; transforming growth factor beta 2
B1: the binding result in experiment [1] was “no binding”. For B2, in experiment [2], the binding result is “no binding”.
